Substrate: Nc1ncnc2c1ncn2[C@@H]1O[C@H](COP(=O)(O)OP(=O)(O)O)[C@@H](O)[C@H]1O
Experiment: purified protein
Format: biochemical, Homo sapiens
Conditions: Mg2+

B1: PPIP5K2 (Homo sapiens) (protein)
chain: MSEAPRFFVGPEDTEINPGNYRHFFHHADEDDEEEDDSPPERQIVVGICSMAKKSKSKPMKEILERISLFKYITVVVFEEEVILNEPVENWPLCDCLISFHSKGFPLDKAVAYAKLRNPFVINDLNMQYLIQDRREVYSILQAEGILLPRYAILNRDPNNPKECNLIEGEDHVEVNGEVFQKPFVEKPVSAEDHNVYIYYPTSAGGGSQRLFRKIGSRSSVYSPESNVRKTGSYIYEEFMPTDGTDVKVYTVGPDYAHAEARKSPALDGKVERDSEGKEVRYPVILNAREKLIAWKVCLAFKQTVCGFDLLRANGQSYVCDVNGFSFVKNSMKYYDDCAKILGNIVMRELAPQFHIPWSIPLEAED
  Km: 5.2 ± 1.5 µM
  kcat: 0.002 s⁻¹
  kcat/Km: 370 M⁻¹ s⁻¹
